Values quoted from earlier work, collected in article PMC5912896.

Molecular target: Akt PH domain (Homo sapiens) (UniProt P31749)
Chain of UniProt P31749 (P31749 2-111): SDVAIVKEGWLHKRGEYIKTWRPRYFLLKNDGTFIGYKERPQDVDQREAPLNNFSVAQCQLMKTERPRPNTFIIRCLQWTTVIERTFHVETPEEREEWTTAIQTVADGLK

In the case of Akt-in peptide (TCL1 A strand), the Kd is listed as 18 µM.
